Test results: paper doi:10.1101/2022.04.02.486822v1
Changes are numbered by the printed parent chain. Names and notes keep the numbering of the source.

B1: EcGhrA (Escherichia coli K-12; W45F) (protein)
chain: MDIIFYHPTFDTQWWIEALRKAIPQARVRAWKSGDNDSADYALVFHPPVEMLAGRDLKAVFALGAGVDSILSKLQAHPEMLNPSVPLFRLEDTGMGEQMQEYAVSQVLHWFRRFDDYRIQQNSSHWQPLPEYHREDFTIGILGAGVLGSKVAQSLQTWRFPLRCWSRTRKSWPGVQSFAGREELSAFLSQCRVLINLLPNTPETVGIINQQLLEKLPDGAYLLNLARGVHVVEDDLLAALDSGKVKGAMLDVFNREPLPPESPLWQHPRVTITPHVAAITRPAEAVEYISRTIAQLEKGERVCGQVDRARGY
B2: EcGhrA (Escherichia coli K-12) (protein)
chain: B1 chain with F45W

How the values were obtained:
Assay in all cases: purified protein
Details in all cases: 200 µM NADPH, 50 mM HEPES, pH 7.5, 22 °C
[1] = substrate: O=CC(=O)O; format: biochemical, Escherichia coli
[2] = substrate: O=C(O)CCC(=O)C(=O)O
[3] = substrate: N=C(N)NCCCC(=O)C(=O)O
[4] = substrate: O=C(O)CC(=O)C(=O)O
[5] = substrate: O=CC(=O)O

Row | Protein | Km [1] [mM] | kcat [1] [s⁻¹] | Km [2] [mM] | kcat [2] [s⁻¹] | Km [3] [mM] | kcat [3] [s⁻¹] | Km [4] [mM] | kcat [4] [s⁻¹] | Km [5] [mM] | kcat [5] [s⁻¹]
1 | B1 | 10.8 ± 6.1 | 120.0 ± 63.0 | 11.5 ± 0.8 | 0.26 ± 0.01 | 43.2 ± 8.4 | 4.0 ± 0.7 | 6.3 ± 0.2 | 1.8 ± 0.04 |  | 
2 | B2 |  |  | 4.0 ± 0.4 | 0.30 ± 0.02 | 8.8 ± 0.8 | 6.6 ± 0.4 | 1.3 ± 0.2 | 1.9 ± 0.1 | 2.2 ± 1.7 | 40.0 ± 23.0
